Reference: the nanobody polyreactivity screen of Harvey et al. (2022)

Test: yeast display, Sf9 membrane polyspecificity reagent, FACS + sequencing; frameworks hold sequencing errors
Outline: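 Using colony PCR, genes from sorted yeast display clones were amplified, then sequenced on MiSeq at 2 × 250 and filtered by CDR length. The clones had been stained with 10% biotinylated, detergent-solubilized Sf9 membrane reagent for 1 hour at 4 °C and sorted by FACS into low and high (top ~1%) gates on anti-HA and streptavidin fluorescence. Polyreactivity labels come from the gate of origin.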

| Sequence | polyreactivity (PSR sort gate) |
| --- | --- |
| QVQLVESGGGLVQAGGSLRLSCAASGRTFRYNAMVWFRQAPGKERELVAAISSGDRTNYADSVKGRFTISRDNAKNTVYLQMNSLKPEDTAVYYCAAPTDSYYEFDYWGQGTQVTVSS | low polyreactivity |
| QVQLVESGGGLVQAGGSLRLSCAASGRTFRYNGMGWYRQAPGKERELVAAITLRDGRTYYADSVKGRITISRDNPKNTVNIQMNSLIPEHTAVYYCALEYWVVNAQGNDYWGQGTQVSVSS | high polyreactivity |
| QVQLVESGGGLVQAGGSLRLSCAASGRTFRYNTMGWYRQAPGKERELVAAITKGAASTYYADSVKGRFTISRDNAKNTVYLQMNSLKPEDTAVYYCNAVYSRIVTQKYWGQGTQVTVSS | high polyreactivity |
| QVQLVESGGGLVQAGGSLRLSCAASGRTFRYYAMGLYRQAPGKERELVAAIRSGGTTYYADSVKGRFTISRDNAKNTVYLQMNSLKPEDTAVYYCAADGGKGGIRFGYWGQGTQVTVSS | high polyreactivity |
| QVQLVESGGGLVQAGGSLRLSCAASGRTFRYYAMGWYRQAPGKEREFVAAITSRSSRTYYADSVKGRFTISRDNAKNTVYLQMNSLKPEDTAVYYCNADYRRYPEFDYWGQGTQVTVSS | high polyreactivity |
| QVQLVESGGGLVQAGGSLRLSCAASGRTFRYYAMGWYRQAPGKERELVAAISASGGSTFYADSVKGRFTISRDNAKNTVYLLMNSLKPEDTAVYYCAAYHYSVFPYKQYDYWGQGTQVTVSS | high polyreactivity |
| QVQLVESGGGLVQAGGSLRLSCAASGRTFRYYAMGWYRQAPGKERELVAAISSSGDRTYYADSVKGRFTISRDNAKNTVYLQMNSLKPEDTAVFYCAADRGARGDYWGQGTQVTVSS | high polyreactivity |
| QVQLVESGGGLVQAGGSLRLSCAASGRTFRYYAMGWYRQAPGKERELVAAISWSGSSTYYADSVKGRFTISRDNAKNTVYLQMNSLKAEDTAVYFCNAKGVRGKYFDYSRVSAYDYWGQGTQVTVSS | low polyreactivity |
| QVQLVESGGGLVQAGGSLRLSCAASGRTFRYYAMGWYRQAPGKERELVAAITISSGSTYYADSVKGRFTISRDNAKNTVYLQMNSLKPEDTAVYYCAATRRYHFDYWGQGTQVTVSS | high polyreactivity |
| QVQLVESGGGLVQAGGSLRLSCAASGRTFRYYAMGWYRQAPGKERELVAAITRSGGSTNYADSVKGRFTISRDNAKNTVYLQMNSLKPEDTAVYYCNREGRSVSGYYYYWGQGTQVTVSS | high polyreactivity |
| QVQLVESGGGLVQAGGSLRLSCAASGRTFRYYAMGWYRQAPGKERELVAVITQSGGRTYYADSVKGRFTISRDNAKNTVYLQMNSLKPEDTAVYYCNAVFPGFFRSSPTYDYWGQGTQVTVSS | high polyreactivity |
| QVQLVESGGGLVQAGGSLRLSCAASGRTFRYYTMGWYRQAPGKEREFVAAISSTGGTYYADSVKGRFTISRDNAKNTVYLLMNSLKPEDTAFYYCAATFIQVVVNVQLYDYDYWGQGTQVTVSS | low polyreactivity |
| QVQLVESGGGLVQAGGSLRLSCAASGRTFRYYTMGWYRQAPGKEREFVAAISSTGGTYYADSVKGRFTISRDNAKNTVYLQMNSLKPEDTAVYYCNADTIYYAGDFRYDYWGQGTQVTVSS | low polyreactivity |
| QVQLVESGGGLVQAGGSLRLSCAASGRTFRYYTMGWYRQAPGKERELVAAISRGGRTYYADSVKGRFTISRDNGKNTVYLQMNSLKPEDTAVYNCAAQLFREYYYWGHGTQVTVSS | high polyreactivity |
| QVQLVESGGGLVQAGGSLRLSCAASGRTFSAYAMGWYRQATGQERELVAAISRSGGSTYYADSVKGRFTISRDNAKNTVYLQMNSLKPEDTAVYYCAAKGGSGLYNWGQGTQVTVSS | high polyreactivity |
| QVQLVESGGGLVQAGGSLRLSCAASGRTFSFYAMGWYRQAPGKERELVAGIDWDDGSTSYADSVKGRFTISRDNAKNTVYLQMNSLKPEDTAVYYCAAGPYAGVDPGDYYYWGQGTQVTVSS | low polyreactivity |

| Sequence | polyreactivity (PSR sort gate) |
| --- | --- |
| QVQLVESGGGLVQAGGSLRLSCAASGRTFSGNAMGWYRQAPGKERELVAGISTSGGSTYYADSVKGRFTISRDNANNTVYVQMNSLKPEDTAVYYCAADRPGSFTTMDYWGQGSQVTVSS | high polyreactivity |
| QVQLVESGGGLVQAGGSLRLSCAASGRTFSGYAMGWYRQAPGKARELVAGITWNGGRTYYADSVKGRFTISRDNAKNTVYLQMNSLKPEDTAVYYCNKLGAVYPKYGYWGQGTQVTVSS | high polyreactivity |
| QVQLVESGGGLVQAGGSLRLSCAASGRTFSGYAMGWYRQAPGKEREFVAAITSSGSSTYYADSVKWRFTISRVIAKNTVYLQMNSLKPEDTAVYYCAATPQAHSERYYYQRKYDYWGQGTQVTVSS | low polyreactivity |
| QVQLVESGGGLVQAGGSLRLSCAASGRTFSGYAMGWYRQAPGKERELVAAISNSGGRTYYADSVKGRFTISRDNAKNTDYLQMNSLKPEDTAVYYSNAVSYWRYDYWGQGTQVTVSS | high polyreactivity |
| QVQLVESGGGLVQAGGSLRLSCAASGRTFSGYAMGWYRQAPGKERELVAAITSSGSSTYYADSVKGRFTISRDKAKNTVYLQMNCLKPEDTAVYYCAATPQAHSERYYSQRKYDYWGQGTQVTVSS | low polyreactivity |
| QVQLVESGGGLVQAGGSLRLSCAASGRTFSGYAMGWYRQAPGKERELVAAITSSGSSTYYADSVKGRFTISRDNAKNTVYLQMNSLKPEDTAVYYCAATPQAHSERYYYQRKYDYWGQGTQVTVSS | low polyreactivity |
| QVQLVESGGGLVQAGGSLRLSCAASGRTFSGYAMGWYRQAPGKERELVAVITYSGGSTYYADSVKGRFTISRDNAKNTVYLQMNSLKPEDTAVYYCNADYVIFYQLVEYDYWGQGTQVTVSS | low polyreactivity |
| QVQLVESGGGLVQAGGSLRLSCAASGRTFSHYAMGWYRKAPGKERELVDTITRNGGITYYADSVKGRFTISRDNAKNTVYLQMNSLKPEDTAVYYCNTETYHVRRLFDYWGQGTQVTVSS | low polyreactivity |
| QVQLVESGGGLVQAGGSLRLSCAASGRTFSHYAMGWYRQAPGKERELVAAISGSGGTTYYADSVKGRFTISRDNAKNTVYLQMNSLKPEDTAVYYCNTRGRYLMDYWGQGTQVTVSS | high polyreactivity |
| QVQLVESGGGLVQAGGSLRLSCAASGRTFSIYAMGCYRQAPGKEREFVAAIRDRGTSTYYADSVKGRFTISRDNAKNTVYLQMNSLKPEDTGVFYCAAVRPYKYQDRDYWGQGTQVTVSS | high polyreactivity |
| QVQLVESGGGLVQAGGSLRLSCAASGRTFSKYTMGWYIQAPGKERELVAAISYSGGSTYYADSVKGRFTISRDNAKNTVYLKMNSLKPEDTAVYYCAARASTYKYYYWGQGTQVTVSA | high polyreactivity |
| QVQLVESGGGLVQAGGSLRLSCAASGRTFSLYAMGWYRQAPGKERELVAAISWGGGSTYYADSVKGRFTISRDNAKNTVYLQMNSLKPEDTAVYYCAADDVSATKYEDDYWGQGTQVTVSS | low polyreactivity |
| QVQLVESGGGLVQAGGSLRLSCAASGRTFSLYAMGWYRQAPGKERELVAAITLSAGSTYYADSVKGRFTISRDNAKNTVYLQMNSLKPEDTAVYYCNAAAYVWKSKQLLYVITYDYWGQGTQVTVSS | high polyreactivity |
| QVQLVESGGGLVQAGGSLRLSCAASGRTFSLYAMGWYRQAPGNDRELVAAISYNGGRTYYADSVKGRFTISRDNAKNTVYLQLNCLKQDDTAVYYCAADHGDPGGYDYWGQGTQVTVSS | high polyreactivity |
| QVQLVESGGGLVQAGGSLRLSCAASGRTFSPNAMGWYRQAPGKERELVASITAIGSRTYYADSVKGRFTISRDKAKNTVYLQMNSLKPEDTAVYYCAKDDELYGTKMYSWGQGTQVTVSS | low polyreactivity |
| QVQLVESGGGLVQAGGSLRLSCAASGRTFSQYAMGWYRQAPGKERELVAAISWSGGSTYYADSVKGRFTISRDNAKNTVYLQMNSLKPEDTAVYYCAAVGKGSARSSYPVLYDYCGQGTQVTVSS | low polyreactivity |
